How the values were obtained:
[1] = target: T1, HTRA1 (construct not given) (Homo sapiens (Human), UniProt Q92743 23-480, limits assumed); assay: cell-based or functional assay
[2] = target: T1, HTRA1 (construct not stated in the …); assay: protease inhibition assay, casein substrate (EnzChek); apparent Ki (Ki^app)
From the text: Two enzymatic assays were used to characterize HTRA1 protease activity and evaluate inhibitory activity of anti-HTRA1 antibodies. EnzChek® Protease Assay Kit (ThermoFisher Scientific) was used following the manufacturer's instructions. This kit contains casein protein that is heavily labeled with the pH-insensitive green-fluorescent BOPIPY® FL dye that results in almost total quenching of the conjugate's fluorescence. Protease-catalyzed hydrolysis of labeled casein releases highly fluorescent BODIPY® FL dye-labeled peptides. The concomitant increase in fluorescence is proportional to protease activity.
Antibodies identified in HTRA1 binding assays were tested for their ability to inhibit HTRA1 protease activity. The range of antibody concentrations was tested to establish a dose response curve and determine IC₅₀ values.

[3] = target: T1, HTRA1 (construct not stated in the …); assay: protease inhibition assay, H2-Opt peptide substrate (FRET); apparent Ki (Ki^app)
[4] = target: human delta N-HTRA1 (amino acids 156-480 of SEQ ID NO:1) (human, UniProt Q92743 156-480); assay: SPR (Biacore); antibody captured by anti-Fc, human delta N-HTRA1 injected; temperature of this table not stated
Chain of human delta N-HTRA1 (amino acids 156-480 of SEQ ID NO:1) (Q92743 156-480, stated change not applied): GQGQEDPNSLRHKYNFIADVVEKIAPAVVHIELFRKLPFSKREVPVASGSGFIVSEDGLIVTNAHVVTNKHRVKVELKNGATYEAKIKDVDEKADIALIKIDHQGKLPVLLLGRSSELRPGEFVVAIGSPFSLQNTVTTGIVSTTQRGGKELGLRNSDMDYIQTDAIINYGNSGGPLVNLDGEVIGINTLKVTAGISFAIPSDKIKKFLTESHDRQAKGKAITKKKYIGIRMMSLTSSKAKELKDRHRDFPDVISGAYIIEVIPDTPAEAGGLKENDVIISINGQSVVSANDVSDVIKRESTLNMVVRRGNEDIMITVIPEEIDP
Procedure: (§1) The binding affinities of anti-HTRA1 antibodies to human HTRA1 were measured using a Biacore system (GE Healthcare Life Sciences). Briefly, anti-Fc antibody (Sigma-Aldrich) was immobilized on all four flow cells of a CMS chip using amine coupling reagents (GE Healthcare LifeSciences). Antibodies were captured on flow cells 2, 3, and 4 using flow cell 1 as a reference. Concentrations ranging from 3.3-10 nM of human delta N-HTRA1 were injected at a flow rate of 50 μL/min at 37° C. Kinetic data were collected over time and fit using the simultaneous global fit equation to yield affinity constants (KD values) for each antibody.

[5] = target: T1, HTRA1 (construct not stated in the …); assay: SPR (Biacore)
Procedure: as §1
In order to determine whether a hz24F7.v2 variant, comprising one of the amino acid substitutions disclosed in Table 15, retains its HTRA1 binding capability, functional characterization was performed via an SPR assay as described herein and an HTRA1 enzyme assay.

[6] = target: T1, HTRA1 (construct not stated in the …); assay: cell-based or functional assay; remark: listed apart in the source
[7] = target: T1, HTRA1 (construct not stated in the …); assay: cell-based or functional assay; remark: listed apart in the source
[8] = target: T1, HTRA1 (construct not stated in the …); assay: cell-based or functional assay; remark: listed apart in the source
[9] = target: T1, HTRA1 (construct not stated in the …); assay: SPR (Biacore); affinity at baseline

T1 sequence (Q92743 23-480 limits assumed): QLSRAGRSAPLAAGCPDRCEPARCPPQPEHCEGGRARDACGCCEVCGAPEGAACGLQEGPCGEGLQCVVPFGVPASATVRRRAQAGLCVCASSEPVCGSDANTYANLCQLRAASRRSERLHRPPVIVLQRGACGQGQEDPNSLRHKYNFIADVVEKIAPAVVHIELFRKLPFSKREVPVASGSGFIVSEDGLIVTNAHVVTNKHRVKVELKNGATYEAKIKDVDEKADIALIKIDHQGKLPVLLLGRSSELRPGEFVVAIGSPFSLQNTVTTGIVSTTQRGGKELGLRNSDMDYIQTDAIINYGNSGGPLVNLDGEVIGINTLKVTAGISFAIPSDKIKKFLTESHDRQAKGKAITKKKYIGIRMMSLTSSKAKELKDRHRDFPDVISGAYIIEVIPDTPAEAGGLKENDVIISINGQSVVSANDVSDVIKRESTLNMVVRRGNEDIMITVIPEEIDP

Binder | IC50, Protease Assay-Casein substrate [1] [nM] | IC50, Protease Assay-H2-Opt peptide [1] [nM] | Kd [4] [nM] | koff [4] [s⁻¹] | kon [4] [M⁻¹ s⁻¹] | Kd [5] [nM] | koff [5] [s⁻¹] | kon [5] [M⁻¹ s⁻¹] | IC50, HTRA1 enzyme assay [6] [nM] | further results
antibody 9F8 (antibody, V domains shown, Mouse hybridoma monoclonal antibody) VH: QVQLQQPGAELVRPGSSVKLSCKASGYAFTTYWMHWVKQRPIQGLEWIGNIDPSDSETHYNQKFRDKATLTVDKSSSTAYMQLSSLTSEDSAVYYCARDYGAFDVWGTGTTVTVSS VL: QAVVTQESALTTSSGETVTLTCRSSTGAVTTRNFASWVQEKPDHLFTGLIGGTNNRAPGVPARFSGSLIGDKAALTITGAQTEDEAIYFCALWYSNLWVFGGGTKLTVL | 0.19 | 0.12 | 0.14 | 0.0044 | 3e+07 |  |  |  |  | Ki [2]: 0.035 nM; Ki [3]: 0.092 nM
hz24F7.v2 S91A (antibody, human IgG1, kappa, N297G, V domains shown, hz24F7.v2 with a substitution in light chain CDR3) VH: QVQLVQSGAEVKKPGASVKVSCKASGYTFTDYEMHWVRQAPGQRLEWMGAIDPETGGTAYNQKFKGRVTITADKSASTAYMELSSLRSEDTAVYYCTREGYSYEGGGYYFDYWGQGTLVTVSS VL: DIQMTQSPSSLSASVGDRVTITCSVSSSVSYMYWYQQKPGKAPKLLIYDTSNLASGVPSRFSGSGSGTDFTFTISSLQPEDIATYYCQQWASYPTFGQGTKLEIKR |  |  |  |  |  | 0.0465 | 0.000169 | 3.63e+06 |  | 
hz24F7.v2 S91L (antibody, human IgG1, kappa, N297G, V domains shown) VH: QVQLVQSGAEVKKPGASVKVSCKASGYTFTDYEMHWVRQAPGQRLEWMGAIDPETGGTAYNQKFKGRVTITADKSASTAYMELSSLRSEDTAVYYCTREGYSYEGGGYYFDYWGQGTLVTVSS VL: DIQMTQSPSSLSASVGDRVTITCSVSSSVSYMYWYQQKPGKAPKLLIYDTSNLASGVPSRFSGSGSGTDFTFTISSLQPEDIATYYCQQWLSYPTFGQGTKLEIKR |  |  |  |  |  | 0.0439 | 0.000161 | 3.67e+06 | 0.084 | 
hz24F7.v2 S91T (antibody, human IgG1, kappa, N297G, V domains shown, hz24F7.v2 with a substitution in light chain CDR3) VH: QVQLVQSGAEVKKPGASVKVSCKASGYTFTDYEMHWVRQAPGQRLEWMGAIDPETGGTAYNQKFKGRVTITADKSASTAYMELSSLRSEDTAVYYCTREGYSYEGGGYYFDYWGQGTLVTVSS VL: DIQMTQSPSSLSASVGDRVTITCSVSSSVSYMYWYQQKPGKAPKLLIYDTSNLASGVPSRFSGSGSGTDFTFTISSLQPEDIATYYCQQWTSYPTFGQGTKLEIKR |  |  |  |  |  | 0.0266 | 0.000189 | 7.1e+06 |  | 
hz24F7.v2 S91Y (antibody, human IgG1, kappa, N297G, V domains shown, hz24F7.v2 with a substitution in light chain CDR3) VH: QVQLVQSGAEVKKPGASVKVSCKASGYTFTDYEMHWVRQAPGQRLEWMGAIDPETGGTAYNQKFKGRVTITADKSASTAYMELSSLRSEDTAVYYCTREGYSYEGGGYYFDYWGQGTLVTVSS VL: DIQMTQSPSSLSASVGDRVTITCSVSSSVSYMYWYQQKPGKAPKLLIYDTSNLASGVPSRFSGSGSGTDFTFTISSLQPEDIATYYCQQWYSYPTFGQGTKLEIKR |  |  |  |  |  | 0.0405 | 0.000184 | 4.54e+06 | 0.07 | IC50 at baseline [7]: 0.07 nM; IC50, enzyme assay; sample stored pH 7.4, 40° C., 0 weeks [8]: 43.4 pM; IC50, enzyme assay; sample stored pH 7.4, 40° C., 2 weeks [8]: 42 pM; IC50, enzyme assay; sample stored pH 7.4, 40° C., 4 weeks [8]: 54.3 pM; Kd [9]: 0.0405 nM; koff [9]: 0.000184 s⁻¹; kon [9]: 4.54e+06 M⁻¹ s⁻¹
hz24F7.v2 S92D (antibody, human IgG1, kappa, N297G, V domains shown, hz24F7.v2 with a substitution in light chain CDR3) VH: QVQLVQSGAEVKKPGASVKVSCKASGYTFTDYEMHWVRQAPGQRLEWMGAIDPETGGTAYNQKFKGRVTITADKSASTAYMELSSLRSEDTAVYYCTREGYSYEGGGYYFDYWGQGTLVTVSS VL: DIQMTQSPSSLSASVGDRVTITCSVSSSVSYMYWYQQKPGKAPKLLIYDTSNLASGVPSRFSGSGSGTDFTFTISSLQPEDIATYYCQQWSDYPTFGQGTKLEIKR |  |  |  |  |  | 0.0249 | 0.000217 | 8.7e+06 | 0.067 | 
hz24F7.v2 S92T (antibody, human IgG1, kappa, N297G, V domains shown, hz24F7.v2 with a substitution in light chain CDR3) VH: QVQLVQSGAEVKKPGASVKVSCKASGYTFTDYEMHWVRQAPGQRLEWMGAIDPETGGTAYNQKFKGRVTITADKSASTAYMELSSLRSEDTAVYYCTREGYSYEGGGYYFDYWGQGTLVTVSS VL: DIQMTQSPSSLSASVGDRVTITCSVSSSVSYMYWYQQKPGKAPKLLIYDTSNLASGVPSRFSGSGSGTDFTFTISSLQPEDIATYYCQQWSTYPTFGQGTKLEIKR |  |  |  |  |  | 0.02 | 0.000197 | 9.81e+06 | 0.098 | IC50, enzyme assay; sample stored pH 7.4, 40° C., 0 weeks [8]: 67.5 pM; IC50, enzyme assay; sample stored pH 7.4, 40° C., 2 weeks [8]: 75.2 pM; IC50, enzyme assay; sample stored pH 7.4, 40° C., 4 weeks [8]: 93.7 pM
hz24F7.v2 S92Y (antibody, human IgG1, kappa, N297G, V domains shown, hz24F7.v2 with a substitution in light chain CDR3) VH: QVQLVQSGAEVKKPGASVKVSCKASGYTFTDYEMHWVRQAPGQRLEWMGAIDPETGGTAYNQKFKGRVTITADKSASTAYMELSSLRSEDTAVYYCTREGYSYEGGGYYFDYWGQGTLVTVSS VL: DIQMTQSPSSLSASVGDRVTITCSVSSSVSYMYWYQQKPGKAPKLLIYDTSNLASGVPSRFSGSGSGTDFTFTISSLQPEDIATYYCQQWSYYPTFGQGTKLEIKR |  |  |  |  |  | 0.0321 | 0.000275 | 8.56e+06 | 0.097 | 
antibody 55B12 (antibody, V domains shown, Mouse hybridoma monoclonal antibody) VH: QVQLQQPGAELVKPGASVKLSCKASGYTFTNYWMHWVKQRPGQGLEWIGNIDPSDSETHYNQKFKDKATLAVDKSSSTAYMQLSSLTSEDSAVYYCAREDSSGYGAYWGQGTLVTVSA VL: QIVLTQSPAIMSASPGEKVTMTCSASSSVNYMHWYQQKSGTSPKRWIYDTSKLASGVPDRFSGSGSGTSYSLTISSMEAEDAATYYCQQWSSHPLTFGAGTKLELK | 0.13 | 0.13 | 0.45 | 0.017 | 3.8e+07 |  |  |  |  | 
antibody 65G8 (antibody, V domains shown, Mouse hybridoma monoclonal antibody) VH: QVQLQQSGPQLVRPGASVKISCKASGYSFTSYWMHWVKQRPGQGLEWIGMIDPSDSETRLNQKFKDKATLTIDKSSSTAYMQLSSPTSEDSAVYYCTRDYFDYWGQGTTLTVSS VL: QIVLTQSPAIMSTSPGEKVTMTCSASSSVSYMYWYQQKPGSSPRLLIYDTSNLASGVPVRFSGSGSGTSYSLTISRMEAEDAATYYCQQWSSYPYTFGGGTKLEIK | 0.06 | 0.09 | 0.42 | 0.003 | 6.9e+06 |  |  |  |  | 

Reference: patent US20220251241A1 (NGM BIOPHARMACEUTICALS, published 2022)
